Holding throughout (test): ITC
In series [1] the target is T1, UHRF1 SRA (mouse, UniProt Q8VDF2 417-628).
T1 sequence: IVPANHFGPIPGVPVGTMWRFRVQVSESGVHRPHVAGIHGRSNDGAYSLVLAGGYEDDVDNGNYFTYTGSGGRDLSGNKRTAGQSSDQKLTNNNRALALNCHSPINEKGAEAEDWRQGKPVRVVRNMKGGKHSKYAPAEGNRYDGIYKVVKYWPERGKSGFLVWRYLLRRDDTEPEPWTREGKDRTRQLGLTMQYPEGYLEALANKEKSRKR

The target of series [2] is T1, UHRF1 SRA. This is another data set of the same source.
In series [3] the target is T1, UHRF1 SRA. The source holds these as a separate data set.
Series [4] concerns the target T1, UHRF1 SRA. This is another data set of the same source.

Where two headings read alike, the source gives them in different places.

Broadly, the Kd is the concentration at which binding is half-saturated. High values mean a looser complex, low ones a tighter complex.

B1: hemi-mCG DNA (dsDNA)
DNA 1: GCAATCCGGTAG
DNA 2: CTACCGGATTGC
modifications: 5mC on one strand in CG context
Regarding B1, the Kd in the series with UHRF1 SRA [1] is 640 ± 120 nM.

B2: fully-mCG DNA (dsDNA)
DNA 1: CAGCTCGAGCTG
DNA 2: CAGCTCGAGCTG
modifications: 5mC on both strands in CG context
In the series with UHRF1 SRA [2], B2 returned a dissociation constant Kd of 4130 ± 90 nM.

B3: mCH DNA (dsDNA)
DNA 1: TCATCAGTGAT
DNA 2: TCACTGATGAC
modifications: 5mC in CH context
For the molecule B3, the Kd with UHRF1 SRA [3] worked out at 1160 ± 90 nM.

B4: fully-mCHG DNA (ITC) (dsDNA)
DNA 1: TCACGCTGCGTGA
DNA 2: TCACGCTGCGTGA
modifications: 5mC on both strands in CHG context
Molecule B4 registered a Kd with UHRF1 SRA [4] of 1850 ± 60 nM.

(Values after doi:10.1101/2019.12.17.880419.)
